Laboratory results as given in paper PMC6377645, “Structural insights into chaperone addiction of toxin-antitoxin systems” (Nature Communications, 2019).

Target: Mtb-HigA1^ΔC42 (Mtb-HigA1 deleted of the last 42 residues) (Mycobacterium tuberculosis)
Test: SEC-MALS; Superdex 200 Increase 5/150; 20 mM MES, 200 mM NaCl, pH 6.5; 15 °C; Mtb-SecB^TA 49.1 µM, Mtb-SecB^TA/HigA1 6.5 µM, Mtb-HigA1^ΔC42 100 µM

Q: How did the stoichiometry N turn out when “Mtb-HigA1^ΔC42 (Mtb-HigA1 deleted of the last 42 residues) (domain or fragment)” was run?
A: Its stoichiometry N is 2.
